Molecular target: human DLL3 on DLL3-expressing tumor cell lines (human) (UniProt Q9NYJ7)
Experiment: cell-based or functional assay

Sequence of human DLL3 on DLL3-expressing tumor cell lines (human) (Q9NYJ7 27-618 limits assumed): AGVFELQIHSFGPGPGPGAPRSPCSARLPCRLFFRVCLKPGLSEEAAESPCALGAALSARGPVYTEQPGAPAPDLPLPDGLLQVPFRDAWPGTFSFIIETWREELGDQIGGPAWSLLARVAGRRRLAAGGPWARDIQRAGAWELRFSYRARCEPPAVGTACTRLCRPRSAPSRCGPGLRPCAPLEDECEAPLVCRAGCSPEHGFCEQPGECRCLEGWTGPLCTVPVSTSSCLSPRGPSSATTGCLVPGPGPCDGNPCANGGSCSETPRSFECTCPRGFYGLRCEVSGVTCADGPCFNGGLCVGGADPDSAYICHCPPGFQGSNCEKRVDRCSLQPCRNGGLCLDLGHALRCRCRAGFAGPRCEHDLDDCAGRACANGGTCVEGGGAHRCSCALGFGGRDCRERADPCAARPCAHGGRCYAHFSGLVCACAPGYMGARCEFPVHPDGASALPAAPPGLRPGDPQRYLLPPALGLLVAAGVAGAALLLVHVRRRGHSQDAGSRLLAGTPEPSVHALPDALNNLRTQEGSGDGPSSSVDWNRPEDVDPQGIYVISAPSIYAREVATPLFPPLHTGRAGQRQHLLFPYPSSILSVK

DMS-153 TDCC EC50 | fold TDCC potency over the parental molecule DH43 | fold TDCC potency over the parental molecule DH6 | Binder
0.049 nM | – | – | 2F11 anti-DLL3 trispecific protein (protein, not shown: large carriers) EVQLVESGGGLVQPGGSLTLSCVASGSVSSINAMGWYRRAPGKQRELVAGISSDGSKVYKDSVKGRFTISRDNAKNSVYLQMNSLRAEDTAVYYCYYFRTVSGSSMGYWGQGTLVTVSS
0.063 nM | – | – | 2E05-M106Y anti-DLL3 trispecific protein (protein, not shown: large carriers) EVQLVESGGGLVQPGGSLTLSCVASGSPSSINAYGWYRRAPGKQRELVAGISSDGSKVYSDSVKGRFTISRDNAKNSVYLQMNSLRAEDTAVYYCYYFRTVSGSSYSYWGQGTLVTVSS
0.041 nM | 6.6 fold | – | 2E05-M106Q anti-DLL3 trispecific protein (protein, not shown: large carriers) EVQLVESGGGLVQPGGSLTLSCVASGSPSSINAYGWYRRAPGKQRELVAGISSDGSKVYSDSVKGRFTISRDNAKNSVYLQMNSLRAEDTAVYYCYYFRTVSGSSQSYWGQGTLVTVSS
0.054 nM | – | 4.4 fold | 4D09-M34L anti-DLL3 trispecific protein (protein, not shown: large carriers) EVQLVESGGGLVQPGGSLTLSCAASGSSVKFLSLAWYRQAPGKKRELVAGISADGSTDYILSVKGRFTISRDNAKNSVYLQMNSLRAEDTAVYYCYAYEWTTRYTYWGQGTLVTVSS
0.13 nM | – | – | 4H11-M34L anti-DLL3 trispecific protein (protein, not shown: large carriers) EVQLVESGGGLVQPGGSLTLSCAASGSSVSRLSLAWYRQAPGKKRELVAGISVDGSTDYIDSVKGRFTISRDNAKNSVYLQMNSLRAEDTAVYYCYAYRWTTRLTYWGQGTLVTVSS
